Measured values published in the nanobody polyreactivity screen of Harvey et al. (2022).

Assay: yeast display, Sf9 membrane polyspecificity reagent, FACS + sequencing; frameworks hold sequencing errors
Method in brief: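 Nanobodies came from a synthetic yeast display library in Saccharomyces cerevisiae BJ5465, induced with galactose for 36–48 hours and stained for 1 hour at 4 °C with 10% biotinylated, detergent-solubilized Sf9 membrane reagent. Cells were enriched on streptavidin microbeads and then FACS-sorted, with low and high (top ~1%) gates set on anti-HA fluorescence for expression and streptavidin fluorescence for reagent binding. Each polyreactivity label reflects the gate a clone came from. Genes were amplified by colony PCR, sequenced by MiSeq 2 × 250 and filtered by CDR length.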

Row | Sequence | polyreactivity (PSR sort gate)
1 | QVQLVESGGGLVQAGGSLRLSCAASGFTLRRNAMGWYRQAPGKERELVAAISRGGSTYYADSVKGRFTISRDNAKNTVYLQMNSLKPEDTAVYYCNAGWFKYYPNLQAFNYWGQGTQVTVSS | high polyreactivity
2 | QVQLVDSGGGLVQAGGSLRLSCAASGRTFRSNAMGWYRQAPGKERELVAAITGSGGRTYYADSVKGRFTISRDNAKNTVYLQMNSLKPEDTAVYYCAARGRAHWHYDDWGQGTQVTVSS | high polyreactivity
3 | QVQLVESGGGLVQAGGSLRLSCAASGSIFLYYTMGWYRQAPGKEREMVAAITSGSSTNYADSVKGRFTISRDNAKNTVYLQMNSLKPEDTAVYYCATQYTLSYPSIDFDYWGQGTQVNVSS | low polyreactivity
4 | QVQLVESRGGLVQAGGSLRLSCAASGRTLKYNVMGWYRQAPGKERELVASITSRGGSTRYADSVKGRFTISRDNAKNTVYLQMNSLKPEDTAVYYCAARYTTARSSYDYWGQGTQVTVSS | high polyreactivity
5 | LVQQVESGGGLVQAVGTLRISCAASGQILYSYAMGWYRQAPGKERELVAAITGGVSTNYADSVKGRFTISRDNAKNTVYLQMNSLKPEDTAVYYCNVELWEYSYIDEYWGQGTQLTVSS | low polyreactivity
6 | QVQLVESGGGLVQAGGSLRLSCAASGITFKANAMGWYRQAPGKERELVAAIRQNGGDTYYADSVKGRFTISRDNAKNTVYLQMNSLKPEDTAVYYCNARLRGAGGYTFYYWGQGTQVTVSS | high polyreactivity
7 | QLQLEESLVGLVQAGGSHPLSCAATGITFFTYTIGWYRQAPGKERELVARIRWDGGSTYYADSVKGRFTISRDNAKNTVYLQMNSLKPEDTAVYYCAADYPYSTYDYWGQGTQVTVSS | low polyreactivity
8 | QVQLVESGGGLVQAGCSLRLSCAASGSTFFRYAMGWYRQAPGKERELVAAITSGGNTYYADSVKGRFTISRDNAKITVYLQMNSMKPEDTAVYYCAADVYHWIHEYDYWGQGTQVSVSS | low polyreactivity
9 | QVQLVESGGGLVQAGGSLRLSCAASGRTFTFNAMGWYRQAPGKERELVARIDWRGITYADSVKGRFTISRDNAKNTVYLQMNSLKPEDTAVYYCAAVWLHISYYGKYDYWGQGTQVTVSS | low polyreactivity
10 | QVQLVESGGGLVQAGGSLRLSCAASGSTLGYYTMGWYRQAPGKERELVAAISGSGVTTSYADSVKGRFTISRDTAKNTVYLQMNSLKPEDTAVYYCARRYRVGTTGGDYWGQGTQVTVSS | high polyreactivity
11 | QVQLVESGGGLVQAGCSLRLSCASSGSTFEYYAKGRYRQAPGKERELGAAINGIGGSTTYADSVKGRFTISRDNAKNNVYFQMNSLKPEDTAVYYCNADVARSNSQASAYDYWGQGTQVTVSS | low polyreactivity
12 | QVQLVESGGGLVQAGGSLRLSCAASGSIFGGYAMGWYRQAPGKERELVAAISYRGASTYYADSVKGRFTISRDNAKNTVYLQMNSLKPEDTAVYYCAVAARTRARVLYGYDYWGQGSQVTVSS | low polyreactivity
13 | QVQLVESGGGLVQAGGSLRLSCAASGRTFGPNVMGWYRQAPGKERELVAAITYSSASTYYADSVKGRFTISRDNAKNTVYLQMNSLKPEDTAVYYCAARDRYYFGGMYYWGQGTQVTVSS | low polyreactivity
14 | QVQLVESGGGLVQAGGSLRLSCAASGFIIHRYAMGWYRQAPGKERELVAVITSGGGSTYYADSVKGRFTISRDNAKNTVYLQMNSLKPEDTAVYYCAAYQPYNSRYRYDYWGQGTQVTVSS | high polyreactivity
15 | QVQLVESGGGLVQAGGSLRLSCAASGGIFAPYAMGWYRQAPGKERELVADITSDGGSTYYADSVKGRFTISRDNAKNTVYLQMNSLKPEDTAVYYCAAEQRYCWWGHPGDYWGQGTQVTVSS | low polyreactivity
16 | QVQLVESGGGLVQAGGSLRLSCADSGRIFVGNAMGWYRQAHGKERELVAAITSSGGSTYYADSVKGRFTISRDNAKNTVYLQMNSLKPEDTAVYYCAARVPYRLKAQPFSNRGYYWGQGTQVTVSS | high polyreactivity
17 | QVQLVESGGGLVQAGGSLRLSCAASGRNFVAYTMGWSRQAPGKERELVAAIRIIGGSTYYADSVKGRFTISRDNAKNTVYLQMNSLKPVDTAVYFCDTPYAYPGTVQYAGYNYWGQGTQVTVSS | high polyreactivity
18 | QVQLVESGGGLVQAGGSLRLSCAASGFIFKPYTMAWYRQAPGKERELVATITFSGGSTYYADSVKGRFTISRDNAKNTVYLQMNSLKPEDTAVYYCAAPRYYRGYAIYDYWGQGTQVTVSS | low polyreactivity
19 | QVQLVESGGGLVQAGGSLRLSCAASGFTFTYYAMGWYRQAPGNERELVAAISSGGNTYYADSVKGRFTISRDNAKNTVYLQMNSLKPEDTAVYYCAAQYSKRAWSWTYAYSYFRFDYWGQGTQVTVSS | low polyreactivity
20 | QVQLVESGGGLVQAGVSLRLSCVPPDLPSTLNVMGWYRQAPGKERELVAAITSSGGSTRYADCVKGRFTISRDNAKNTVYLQMNSLKPEDTAVYYCAASRDKYGNRVRPFDYWGQGTQVTVSS | low polyreactivity
21 | QVQLVESGGGLVQAGGSLGLSCAASGYSLGSYAMGWYRQAPGKERELVAAITSSGGSTYYADSVKGRFTSSRDYAKNTDYLQMNSLKPEDTAVYYCAAERGYHGGGSGLYDYWGQGTQVTVSS | low polyreactivity
22 | QVQLVESGGGLVQAGGSLRLSCAASGSIFRSNTMGWYRQAPGKERELVAGISYSGGSTYADSVKGRFTISRDNAKNTVYLQMNSLKPEDTAVYYCNTVYDPHTGQSDSWGQATQVTVSS | low polyreactivity

Row | Sequence | polyreactivity (PSR sort gate)
23 | QVQLVESGGGLVQAGGSLRLSCAASGLTFKYYTMGWYRQAPGKERELVAAISRSGTITYYADSVKGRFTISRDNAKNTVYLQMNSLKPEDTAVYYSNKASTYPSYDYWGHGTQVTVSS | high polyreactivity
24 | QVQLVESGGGLVQAGGSLRLSCAASGTIFRGNAMGWYRQAPGTERELVAAINKSGGSTYYADSVKGRFTISRDNAKNTVYLQMNSLKPEDTAVYYCAAVYKRLQPYGYWGQGTQVTVSS | high polyreactivity
25 | QVQLVESGGGLVQAGGSLRLSCAASGFTFYYYAMGWYRQAPGKERELVAAISYSGGSTYYADSVKGRFTISRDNAKNTVYLQMNSLKPEDTAVYYCAALYTGESGYWGQGTQVTVSS | high polyreactivity
26 | QVQLVESGGGLVQAGGSLRLSCAASGRTFTRYAMGWYRQAPGKERELVASITTGGRTYYADSVKGRFTISRDNAKNTVYLQMNSLKPEDTAVYYCAARTYGGFEYWGQGTQVTVSS | high polyreactivity
27 | QVQLVESGGGLVQAGGSLRLSCAASGYIFSYNAMGWYRQAPGKERELVAAITGDSGTYYADSVKGRFTISRDNAKNTVYLQMNSLKPEDTAVYYCATDPYIFPVFYDLYWGYNYWGQGTQVTVSS | low polyreactivity
28 | QVQLVESGGGLVQAGGSLRLSCAASGYIFKFYTMGWYRQAPGKERELVAAISRSGGSTYYADSVKGRFTISRDNAKNTVYLQLNSLKPEDTAVYYCARPRTRQGDYWGQGSQVTVSS | high polyreactivity
29 | QVQLVESGGGLVQAGGSLRLSCAASGFILYDNTMGWYRQAPGKEREFVAAIRDSGGSTYYADSVKGRFTISRDNAKNTVYLQMNSLKPEDTAVYYCNTYGSGTHSTGYDYWGQGTQVTVSS | low polyreactivity
30 | QVQLVESGGGLVQAGGSLRLSCAASGRTYRAYTMGWYRQAPGKERELVAAISTPGGSTYYADSVKGRFTISRDNAKKTVYLQMIILKPEDNAVYYCAAGTFYYWLSYDYWGQGTKVTVSS | low polyreactivity
31 | QVHLVESGGGLVQAGGSLRLSCAASGSTFSYYAMGWYRQAPGKERELVAAISRSGGSTYYPDSVKGRFTISRDNAKNTVYLQMNSLKPEDTADYSCNRYYYTVTREFDYWGQGSQVTVSS | low polyreactivity
32 | QVQHVESGGGLVQAGGSLRLSCAASGLTFLSNAMGWYRPARGNEWELVAAINSGARKFYADSVKGRFTISRDNAKNTVYLQMNCLKPEDTAVYYCNADYGKPSYYDDGDYWGEGTQVTVSS | low polyreactivity
33 | QVQLVESGGGLVQAGGSLRLSCAASGSIFPRYAMGWYRQAPGKERELVAAITGSGSSTYYADSVKGRFTISRDNAKNTVYLQMNSLKPEDTAVYYCADRFIWGYWGVGYYYWGQGTQVTVSS | low polyreactivity
34 | QVQLVESGGGLVQAGGSLRLSCAASGRTFRYNAMGWYRQAPGKERELVAAISRSGGRTYYADSVKGRFTISRDNAKNTVYLQMNSLKPEDTAVYYCNAAPSWSTSFDSWGQGTQVTVSS | high polyreactivity
35 | QVQLVESGGGLVQAGGSLRLSCAASGSICRYYDMGWYRQAPGKERELVAAISRSGGSTYYADSVKGRFTISRDNAKNTVYLQMNSLKPEDTAVYYCNVDQFRYREDDYWGQGTQVNVSS | high polyreactivity
36 | QVQLVESGGGLVQAGGSLRLSCAASGRIITYNAMGWYRQAPGKERELVAAISTTGGRTYYADSVKGRFTISRDNAKNTVYLQMNSLKPEDTAVYYCNAVLKRPLAYHVTYDYWGQGTQVTVSS | high polyreactivity
37 | QVQLVESGGGLVQAGGSLRLSCAASGSIYDWYSMGWNIQAPGKERELVAAISSGDSTYYADSVKGRFTISRDNAKNTVYLQMNSLKPEDTAVYYCAAVTKLSGIRYNYWGQGTQVTVSS | low polyreactivity
38 | QVQLVESGVGLVQAGGSLRLSCAPSGSIFGRNAMGWYRQAPGKERELVAAISGGGSTNYSDSVKGRFTISRDNAKNTVYLQMNSLKPEDTAVYYCNTYPGSRHWWYDYWGQGTQGTVSS | high polyreactivity
39 | QVQLVESGVGLVQAGGSLRLSCAASGLIIYAYVMGWYRQAPGKERELVATISRSGARTHYADSVKGRFTISRDNAKNTVYLQMNSLKPEDTAVYYCAADVYLSSYEKYGYWGQGTQVTVSS | high polyreactivity
40 | QVQLVESGGGLVQAGGSLRLSCAASGITFVTYAMGWYRQAPGKERELVAAISRSGGNTYYADSVKGRFTISRDNAKNTVYLQMNSLKPEDTAVYYCAAGGHRERDYWGQGTQVTVSS | high polyreactivity
41 | QVQLVESGGGLVQAGGSLRLSCAASGLTFSTYAMGWYRQAPGKERELVAVIRRTGSTYYADSVKGRFTISRDNAKNTVYLQMNSLKPEDTAVYYCATARRHVSGYDYWGQGTQVTVSS | high polyreactivity
42 | QVQLVESGGGLVQAGGSLRLSCAASGGIFFPNAMGWYRQAPGKERELVAAISWSAGSTYYADSVKGRFTISRDNAKNTVYLQMNSLKPEDTAVYYCAAAGSNYTVWYGYYYWGQGTQVTVSS | low polyreactivity
43 | QVQLVESGGGLVQAGGSLRLSCAASGFTFHYYTMGWYRQAPGKEREFVAAISKSGGRTYYADSVKGRFTISRDNAKNTVYLQMNSLKPEDTAVYYCATVGYWRNRHDYWGQGTQVTVSS | high polyreactivity
